Experimental data published in paper PMC8106667 (Molecular cell, 2021).

B1: MBP-ORC1 wild type, full length (natural protein, human, UniProt Q13415 1-861, looked up)
chain: MAHYPTRLKTRKTYSWVGRPLLDRKLHYQTYREMCVKTEGCSTEIHIQIGQFVLIEGDDDENPYVAKLLELFEDDSDPPPKKRARVQWFVRFCEVPACKRHLLGRKPGAQEIFWYDYPACDSNINAETIIGLVRVIPLAPKDVVPTNLKNEKTLFVKLSWNEKKFRPLSSELFAELNKPQESAAKCQKPVRAKSKSAESPSWTPAEHVAKRIESRHSASKSRQTPTHPLTPRARKRLELGNLGNPQMSQQTSCASLDSPGRIKRKVAFSEITSPSKRSQPDKLQTLSPALKAPEKTRETGLSYTEDDKKASPEHRIILRTRIAASKTIDIREERTLTPISGGQRSSVVPSVILKPENIKKRDAKEAKAQNEATSTPHRIRRKSSVLTMNRIRQQLRFLGNSKSDQEEKEILPAAEISDSSSDEEEASTPPLPRRAPRTVSRNLRSSLKSSLHTLTKVPKKSLKPRTPRCAAPQIRSRSLAAQEPASVLEEARLRLHVSAVPESLPCREQEFQDIYNFVESKLLDHTGGCMYISGVPGTGKTATVHEVIRCLQQAAQANDVPPFQYIEVNGMKLTEPHQVYVQILQKLTGQKATANHAAELLAKQFCTRGSPQETTVLLVDELDLLWTHKQDIMYNLFDWPTHKEARLVVLAIANTMDLPERIMMNRVSSRLGLTRMCFQPYTYSQLQQILRSRLKHLKAFEDDAIQLVARKVAALSGDARRCLDICRRATEICEFSQQKPDSPGLVTIAHSMEAVDEMFSSSYITAIKNSSVLEQSFLRAILAEFRRSGLEEATFQQIYSQHVALCRMEGLPYPTMSETMAVCSHLGSCRLLLVEPSRNDLLLRVRLNVSQDDVLYALKDE
B2: MBP-ORC1 R105Q, R720Q (natural protein, human, UniProt Q13415 1-861, looked up)
chain: MAHYPTRLKTRKTYSWVGRPLLDRKLHYQTYREMCVKTEGCSTEIHIQIGQFVLIEGDDDENPYVAKLLELFEDDSDPPPKKRARVQWFVRFCEVPACKRHLLGQKPGAQEIFWYDYPACDSNINAETIIGLVRVIPLAPKDVVPTNLKNEKTLFVKLSWNEKKFRPLSSELFAELNKPQESAAKCQKPVRAKSKSAESPSWTPAEHVAKRIESRHSASKSRQTPTHPLTPRARKRLELGNLGNPQMSQQTSCASLDSPGRIKRKVAFSEITSPSKRSQPDKLQTLSPALKAPEKTRETGLSYTEDDKKASPEHRIILRTRIAASKTIDIREERTLTPISGGQRSSVVPSVILKPENIKKRDAKEAKAQNEATSTPHRIRRKSSVLTMNRIRQQLRFLGNSKSDQEEKEILPAAEISDSSSDEEEASTPPLPRRAPRTVSRNLRSSLKSSLHTLTKVPKKSLKPRTPRCAAPQIRSRSLAAQEPASVLEEARLRLHVSAVPESLPCREQEFQDIYNFVESKLLDHTGGCMYISGVPGTGKTATVHEVIRCLQQAAQANDVPPFQYIEVNGMKLTEPHQVYVQILQKLTGQKATANHAAELLAKQFCTRGSPQETTVLLVDELDLLWTHKQDIMYNLFDWPTHKEARLVVLAIANTMDLPERIMMNRVSSRLGLTRMCFQPYTYSQLQQILRSRLKHLKAFEDDAIQLVARKVAALSGDAQRCLDICRRATEICEFSQQKPDSPGLVTIAHSMEAVDEMFSSSYITAIKNSSVLEQSFLRAILAEFRRSGLEEATFQQIYSQHVALCRMEGLPYPTMSETMAVCSHLGSCRLLLVEPSRNDLLLRVRLNVSQDDVLYALKDE
B3: GST-CDC6 Δ21–30 (natural protein, human, UniProt Q99741 1-560, looked up)
chain: MPQTRSQAQATISFPKRKLSDAKLEPTNVQTVTCSPRVKALPLSPRKRLGDDNLCNTPHLPPCSPPKQGKKENGPPHSHTLKGRRLVFDNQLTIKSPSKRELAKVHQNKILSSVRKSQEITTNSEQRCPLKKESACVRLFKQEGTCYQQAKLVLNTAVPDRLPAREREMDVIRNFLREHICGKKAGSLYLSGAPGTGKTACLSRILQDLKKELKGFKTIMLNCMSLRTAQAVFPAIAQEICQEEVSRPAGKDMMRKLEKHMTAEKGPMIVLVLDEMDQLDSKGQDVLYTLFEWPWLSNSHLVLIGIANTLDLTDRILPRLQAREKCKPQLLNFPPYTRNQIVTILQDRLNQVSRDQVLDNAAVQFCARKVSAVSGDVRKALDVCRRAIEIVESDVKSQTILKPLSECKSPSEPLIPKRVGLIHISQVISEVDGNRMTLSQEGAQDSFPLQQKILVCSLMLLIRQLKIKEVTLGKLYEAYSKVCRKQQVAAVDQSECLSLSGLLEARGILGLKRNKETRLTKVFFKIEEKEIEHALKDKALIGNILATGLP
B4: GST-CDC6 Δ71–90 (natural protein, human, UniProt Q99741 1-560, looked up)
chain: MPQTRSQAQATISFPKRKLSRALNKAKNSSDAKLEPTNVQTVTCSPRVKALPLSPRKRLGDDNLCNTPHLLKGRRLVFDNQLTIKSPSKRELAKVHQNKILSSVRKSQEITTNSEQRCPLKKESACVRLFKQEGTCYQQAKLVLNTAVPDRLPAREREMDVIRNFLREHICGKKAGSLYLSGAPGTGKTACLSRILQDLKKELKGFKTIMLNCMSLRTAQAVFPAIAQEICQEEVSRPAGKDMMRKLEKHMTAEKGPMIVLVLDEMDQLDSKGQDVLYTLFEWPWLSNSHLVLIGIANTLDLTDRILPRLQAREKCKPQLLNFPPYTRNQIVTILQDRLNQVSRDQVLDNAAVQFCARKVSAVSGDVRKALDVCRRAIEIVESDVKSQTILKPLSECKSPSEPLIPKRVGLIHISQVISEVDGNRMTLSQEGAQDSFPLQQKILVCSLMLLIRQLKIKEVTLGKLYEAYSKVCRKQQVAAVDQSECLSLSGLLEARGILGLKRNKETRLTKVFFKIEEKEIEHALKDKALIGNILATGLP
B5: GST-CDC6 1–110 (domain or fragment, human, UniProt Q99741 1-110, looked up)
chain: MPQTRSQAQATISFPKRKLSRALNKAKNSSDAKLEPTNVQTVTCSPRVKALPLSPRKRLGDDNLCNTPHLPPCSPPKQGKKENGPPHSHTLKGRRLVFDNQLTIKSPSKR
B6: GST-CDC6 triple mutant (K92A, R94A and R95A) (natural protein, human, UniProt Q99741 1-560, looked up)
chain: MPQTRSQAQATISFPKRKLSRALNKAKNSSDAKLEPTNVQTVTCSPRVKALPLSPRKRLGDDNLCNTPHLPPCSPPKQGKKENGPPHSHTLAGAALVFDNQLTIKSPSKRELAKVHQNKILSSVRKSQEITTNSEQRCPLKKESACVRLFKQEGTCYQQAKLVLNTAVPDRLPAREREMDVIRNFLREHICGKKAGSLYLSGAPGTGKTACLSRILQDLKKELKGFKTIMLNCMSLRTAQAVFPAIAQEICQEEVSRPAGKDMMRKLEKHMTAEKGPMIVLVLDEMDQLDSKGQDVLYTLFEWPWLSNSHLVLIGIANTLDLTDRILPRLQAREKCKPQLLNFPPYTRNQIVTILQDRLNQVSRDQVLDNAAVQFCARKVSAVSGDVRKALDVCRRAIEIVESDVKSQTILKPLSECKSPSEPLIPKRVGLIHISQVISEVDGNRMTLSQEGAQDSFPLQQKILVCSLMLLIRQLKIKEVTLGKLYEAYSKVCRKQQVAAVDQSECLSLSGLLEARGILGLKRNKETRLTKVFFKIEEKEIEHALKDKALIGNILATGLP
B7: GST-CDC6 Δ11–20 (natural protein, human, UniProt Q99741 1-560, looked up)
chain: MPQTRSQAQARALNKAKNSSDAKLEPTNVQTVTCSPRVKALPLSPRKRLGDDNLCNTPHLPPCSPPKQGKKENGPPHSHTLKGRRLVFDNQLTIKSPSKRELAKVHQNKILSSVRKSQEITTNSEQRCPLKKESACVRLFKQEGTCYQQAKLVLNTAVPDRLPAREREMDVIRNFLREHICGKKAGSLYLSGAPGTGKTACLSRILQDLKKELKGFKTIMLNCMSLRTAQAVFPAIAQEICQEEVSRPAGKDMMRKLEKHMTAEKGPMIVLVLDEMDQLDSKGQDVLYTLFEWPWLSNSHLVLIGIANTLDLTDRILPRLQAREKCKPQLLNFPPYTRNQIVTILQDRLNQVSRDQVLDNAAVQFCARKVSAVSGDVRKALDVCRRAIEIVESDVKSQTILKPLSECKSPSEPLIPKRVGLIHISQVISEVDGNRMTLSQEGAQDSFPLQQKILVCSLMLLIRQLKIKEVTLGKLYEAYSKVCRKQQVAAVDQSECLSLSGLLEARGILGLKRNKETRLTKVFFKIEEKEIEHALKDKALIGNILATGLP
B8: GST-CDC6 Δ51–70 (natural protein, human, UniProt Q99741 1-560, looked up)
chain: MPQTRSQAQATISFPKRKLSRALNKAKNSSDAKLEPTNVQTVTCSPRVKAPPCSPPKQGKKENGPPHSHTLKGRRLVFDNQLTIKSPSKRELAKVHQNKILSSVRKSQEITTNSEQRCPLKKESACVRLFKQEGTCYQQAKLVLNTAVPDRLPAREREMDVIRNFLREHICGKKAGSLYLSGAPGTGKTACLSRILQDLKKELKGFKTIMLNCMSLRTAQAVFPAIAQEICQEEVSRPAGKDMMRKLEKHMTAEKGPMIVLVLDEMDQLDSKGQDVLYTLFEWPWLSNSHLVLIGIANTLDLTDRILPRLQAREKCKPQLLNFPPYTRNQIVTILQDRLNQVSRDQVLDNAAVQFCARKVSAVSGDVRKALDVCRRAIEIVESDVKSQTILKPLSECKSPSEPLIPKRVGLIHISQVISEVDGNRMTLSQEGAQDSFPLQQKILVCSLMLLIRQLKIKEVTLGKLYEAYSKVCRKQQVAAVDQSECLSLSGLLEARGILGLKRNKETRLTKVFFKIEEKEIEHALKDKALIGNILATGLP

target: T1, MBP-GFP-ORC1 wild type, full length (human, UniProt Q13415 1-861); experiment: pull-down
T1 sequence (looked up): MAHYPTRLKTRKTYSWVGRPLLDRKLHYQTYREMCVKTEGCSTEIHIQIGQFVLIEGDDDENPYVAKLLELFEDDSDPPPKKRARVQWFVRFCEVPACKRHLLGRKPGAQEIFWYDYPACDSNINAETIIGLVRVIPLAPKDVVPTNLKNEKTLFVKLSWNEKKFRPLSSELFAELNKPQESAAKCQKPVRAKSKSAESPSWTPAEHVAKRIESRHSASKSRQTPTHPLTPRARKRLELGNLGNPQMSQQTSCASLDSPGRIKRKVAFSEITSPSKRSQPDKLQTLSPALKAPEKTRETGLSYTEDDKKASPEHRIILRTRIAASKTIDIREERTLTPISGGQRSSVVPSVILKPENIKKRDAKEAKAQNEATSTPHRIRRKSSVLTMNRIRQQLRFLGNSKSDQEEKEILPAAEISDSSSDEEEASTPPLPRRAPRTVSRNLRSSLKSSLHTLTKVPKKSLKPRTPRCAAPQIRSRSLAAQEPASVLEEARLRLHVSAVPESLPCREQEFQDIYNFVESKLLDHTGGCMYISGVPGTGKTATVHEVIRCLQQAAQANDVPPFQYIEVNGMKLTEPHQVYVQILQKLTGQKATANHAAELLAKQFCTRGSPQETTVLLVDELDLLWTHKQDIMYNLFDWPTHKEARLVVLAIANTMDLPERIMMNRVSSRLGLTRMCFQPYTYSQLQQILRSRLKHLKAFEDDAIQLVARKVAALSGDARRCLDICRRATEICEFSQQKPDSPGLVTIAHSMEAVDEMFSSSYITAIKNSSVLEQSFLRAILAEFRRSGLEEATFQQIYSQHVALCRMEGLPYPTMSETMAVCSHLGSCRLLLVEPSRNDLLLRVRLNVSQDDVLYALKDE

Binding result, binds:
B1
B2

target: B1; experiment: pull-down

Binding result, binds:
B3
B4
B5
B6
B7
B8
